Measurements taken from patent publication CN110655572A.

Assays:
[1] = target: 扎依尔型GP蛋白 (扎依尔型埃博拉病毒 (ZEBOV)); assay: cell-based or functional assay
[2] = target: 苏丹型GP蛋白 (苏丹型埃博拉病毒 (SUDV)); assay: cell-based or functional assay
[3] = target: 马尔堡病毒GP蛋白 (马尔堡病毒 (MARV)); assay: cell-based or functional assay
[4] = target: 扎依尔型GP蛋白 (扎依尔型埃博拉病毒 (ZEBOV)); assay: ELISA, GP protein coated on plate, goat anti-human IgG-HRP detection
[5] = target: 苏丹型GP蛋白 (苏丹型埃博拉病毒 (SUDV)); assay: as above
[6] = target: 马尔堡病毒GP蛋白 (马尔堡病毒 (MARV)); assay: as above

B1: 单克隆抗体40C1L (antibody, V domains shown)
VH: EVQLVQSGAEVKRPGESLKISCKTSGYSFPTYWITWVRQMPGKGLEWMGTIDLSDSETKYSPSFDGQVTISADKSINTAYLQWSSLKASDSATYYCAMRYSNYRTWFNVWGPGVLVTVSS
VL: SYDLTQPPSVSVSPGQTARITCGGDNIGSEAVHWYQQQPPQAPVLVIYYNRERPSGIPERFSGSKSGNTATLTISGVEAGDEADYYCQLWDSSSDYPLFGGGTRLTVL
Question: For B1, which 假病毒中和 最大半数抑制浓度(IC50) [1] is on record?
Answer: 25.3 µg/mL

Question: What about the 假病毒中和 最大半数抑制浓度(IC50) [2] of the same binder?
Answer: 3.12 µg/mL

Question: What about the 假病毒中和 最大半数抑制浓度(IC50) [3] of the same binder?
Answer: 14.5 µg/mL

Question: And the EC50 [4]?
Answer: 0.697 µg/mL

Question: And the EC50 [5]?
Answer: 2.09 µg/mL

Question: And the EC50 [6]?
Answer: 0.342 µg/mL
